# Data reported in US7897729.
# Target: FcγRIII (CD16) (human) (UniProt P08637)
# Assay: cell-based or functional assay
# Sequence of FcγRIII (CD16) (human) (P08637 17-254): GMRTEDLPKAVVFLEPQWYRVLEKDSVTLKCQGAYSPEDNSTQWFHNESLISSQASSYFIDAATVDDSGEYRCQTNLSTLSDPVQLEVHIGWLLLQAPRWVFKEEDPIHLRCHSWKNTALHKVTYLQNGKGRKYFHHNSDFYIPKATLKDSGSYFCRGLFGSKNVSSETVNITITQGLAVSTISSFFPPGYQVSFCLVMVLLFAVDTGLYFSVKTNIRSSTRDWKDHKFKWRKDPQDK
"IFN-γ secretion from PBMC, immobilized anti-CD16 mAb (10 µg/ml) + IL-2 [ng/mL]","TNF-α secretion from PBMC, immobilized anti-CD16 mAb (10 µg/ml) + IL-2 [ng/mL]","proliferative response of PBMC ([3H]thymidine), IL-2 and immobilized anti-CD16 mAb [CPM]","proliferative response of PBMC ([3H]thymidine), immobilized anti-CD16 mAb alone, no IL-2 [CPM]","IFN-γ secretion from PBMC, aggregated IgG (40 µg/ml) + IL-2 [ng/mL]","TNF-α secretion from PBMC, aggregated IgG (40 µg/ml) + IL-2 [ng/mL]","fold induction of PBMC proliferation over IL-2, 125 µg/mL of AIG [fold]","proliferative response of PBMC, 125 µg/mL of AIG and IL-2 [CPM]",Substance
9.85,3.32,15500,592,–,–,–,–,anti-CD16 mAb 3G8 (antibody)
–,–,–,–,13,2.46,16,17400,heat aggregated IgG (AIG)
